Data taken from the DeepSol protein solubility set.

Test: soluble on expression in E. coli; label from the status in PepcDB or PDB records

Sequence | soluble on expression in E. coli
MAHHHHHHMTGADPDMLGSSAPNRPALMEPSVAPSPTSSPPATNAHANGSNSNGAGNVPLSQSTWRDSAAGSQPHGHGMPSTVRAADAPGVTEEKQAEGAFGADVHYNPATEHDFAVRGGLDGGAEGEHNSAKKIRLNNVSHFKNVPSRLNVQRQSTEADLVPCTYCGRKFLPGRVQKHEDCCIDRSKPLTARKGGALPARPSTGAATPRLAKPTPAAPAVESAATGKAKFCGGCGCKKSEPDQKFCTECGHKL | soluble
MGSDKIHHHHHHMTEMNHSVPDDMLMGYASGSLAKAFDLVLATHVSLNDDARARLETFEALGGAILCGMDTVDVDDDSLEQTMAKIRGNAPIERPAPSEGLFPTPLQSMVGGDVDAVRWRSVGGGVKQCVLHSDDGGTVRLLSIAAGRAMPAHSHHGTEMTLVLQGAYRDDDGIFARGDLELADTDTNHQPVAEPGQDCICLVATNAKLKFQGLLPRIAQPFLGI | not soluble
MRLIVVSGQSGAGKSVALRVLEDLGYYCVDNLPVSLLTAFIQSVQGSQQNVAVSIDIRNLPKEPSLVQDVLDQLKQNNDVSMLFLDASKETLLKRYSETRRIHPLSLSQSKPSLAQAIELEKQLLGPLKEQADLLLDSSNQSLHELSETVRMRIEGRERKDLVMVFQSFGFKYGLPTDADYVFDVRFLPNPHWEPDLRPLTGLDAPIKSFLEGHSEVMELKQQIQKFFEYWLPMLEKNNRSYLTIAIGCTGGKHRSVYLTQQLGEYFAQLGHQVQLRHTSLEKQ | soluble
GPGSMMVGKAPKNCVHIGLCVLYSGSGFRGLQIQVHAPTCHTVEGVLIQALKDAGIIADVVRGRPAGEHHHFARSCRTDRGVHAIRNMVSLFVPKEVFEKMGQAEGICEKLNRQLPATVRVANVMQLSGSFIPRHCCNRRVYRYMLPLYALLPPCDTWAAVDKYYPGCLAHVQALAEEAAAAQRTQYSIPYVDLEKMNAVARPADAQALPSSWLRDLKASADRCNQVLRSHFTGSRRYHNFSVDIDSNRSGVSAKVIQPTTDEALRAIYRSEVCPRLFFFPCSTKGGAADEAPVPVHGESRTEYDMNLLRYPPRTPTSPEDTVGGSAAASTTTTPTGTSTTPATCLSPNTTALPFLFFQIEGCSFLLNMIRKIIGSVLAVCRGARESILEDAFSPECRVTTPLAPGPYLYLAQSTYHGYDRSIGGAGNAHQPGRLKTVQDAWGGAVSEAAELFAFHKIAADIVDVDLNAMPPLDDILAARDRAREASRPHTAVEDAHLAEMKEYKPVLPTRIPWPASSDMTVFLRLLRVHNWNVRPIQLDPACKALREIKNRKERLTASSVAAAASPGAEASKAGEADGGDTRANEATVEQAATPTGDAWRIRSEGSSTGGVPEGGEDGWLYVADTPEEASVQRQAYFASLWKRARPWEYDDATGKSLIHGGEVGTEDDFDDGDGSTARPRRHRRV | soluble
MSLAYTIKKVEKETKISAHTLRFWAKKGLFPFVQKDENSVKYFSKSDIEWVKWIEWLRISGMPIEQVKHYIKLCSLGIKTAKERQEMLKQTKKKLQNQIKTLKESEKVLSKKIKIYEEMLANEVDGFNPESKDYQPCDKLHKFKGEGHHHHHH | not soluble
GLIDSHVHPVVGDYTPRQQQLHWIDSTLHGGVTTLISAGEVHMPGRPKDIVGLKAMAIAAQRWYENFRPSGVKVMAGAPVIEHGMVEQDFKELADAGVKLLGEVGLGTVKDGKTARQMVDWARKYGIQSTIHTGGPSIPGSGLIDADMVLETGTDVIGHINGGHSALPDDQIMCLCESCTAGLEIVHNGNERAALLTLNTARELKQMDRIILGTDGPAGSGVQPLGILRMVAMLSALGNVPAEIAFCFANGNTARQRELDTGLLERGYAADFVLMDQAQHAPGKTILESVQLGNLPGVGMTVIDGVVCSERSRNTPPATRLPRIVS | not soluble
MFARNFFKGGTKVPHFKNTAECETVKMGVPEKVVIPMLQHVGAPCEPCVKKGDTVRVGQVIGNSDKYISSPIHSSVSGTVNDVAPMLFAGGIYVTAVEIKTDGKQEIYEGIKPPSFSNSKEFISAIRESGLVGLGGAGFPAHVKLSPPPDKKIDTLIINAAECEPYITSDYREIIENSWNVVSGINIIMEILGIENVLIGIEDNKPEAIKEMTRVAATDDRINVIKLKSRYPQGAEKMLIYATTGRKVPPGKLPADVGVIVMNVNSVSFISEYIKTGMPLIKKRVTVDGPSVKRPGNVEVLIGTPISEVFSFCGGFGIVPKKILMGGPMMGIAQYTLDTPVLKHTNALLAFDETTAVLPKEQACIRCGRCVRACPMNLLPLYLNNNSIRGNIEELNRYHVMDCIECGSCAYVCPAKINLVQSIRLGKAQVRQAAAKGGN | not soluble
MMYSFEANANAVKISETVSVDTGQGAKIHKFVPKNSKTYSSDLIKTVDLTHIPTGAKARINAKITASVSRAGVLAGVGKLARLGAKFSTRAVPYVGTALLAHDVYETFKEDIQARGYQYDPETDKFAKVSG | not soluble
MSLALLLRVRRLRLDRAERAQGRQLLRVRAAAQEHTERQAAQRDYRDWRLAEEQRLFLACQAAMLDRRRLEAWQQQVGLLREKEAGLEQDCAEAAQRLEGERERLRQCRRELLERQRQLEKFAELERHVDAERQGLRERSEEGELEEFTRHETWPCSSLEHHHHHH | not soluble
MAKTYKKIGEETKVIEATEPLTILLMGVDTGNVERTETWVGRSDSMILMTVNPKTKKTTMMSLERDILTRIESGNGQAHEAKLNSAYADGGAELAIETIQKMMNIHIDRYVMVNMRGLQKLVDAVGGITVNNILGFPISISDQEEFNTISIGVGEQHIGGEEALVYARMRYQDPEGDYGRQKRQREVIQKVMEKALSLNSIGHYQEILKALSDNMQTNIDLSAKSIPNLLGYKDSFKTIETQQLQGEGEILQGVSYQIVSRAHMLEMQNILRRSLGQEEVTQLETNAVLFEDLFGRAPVGDEDNLEHHHHHH | soluble
MGSDKIHHHHHHMKLLMLCREPRLYSCQRLKESAEDNGHQIDILDPNRCLLKLSKNAPHFELYYQVNSKSEPYLLPDYDAIIPRFGSTSTRMGCAVLRHFRTKNIFCLNDDVAFLKARDKWLSLQLLTEQGIAVPNSALSGAEFSATQAILQIQSPTILKTLHGSQGIGVILAENRKSAVSIMETLTQADVPLLMQDFIQEAQGTDIRCFVIGDKVVATMQRIGQEDEFRANFHRGGSAEKIQLTEQEKVLALKATKCLGLDVAGVDLIRSKQGLLVLEVNASPGLEMIEKTSGIDIALQMIVHIEKQFKR | not soluble
MGSDKIHHHHHHMGFDLDVEKKKENRNIPQANNLKIKVIGVGGAGNNAINRMIEIGIHGVEFVAVNTDLQVLEASNADVKIQIGENITRGLGAGGRPEIGEQAALESEEKIREVLQDTHMVFITAGFGGGTGTGASPVIAKIAKEMGILTVAIVTTPFYFEGPERLKKAIEGLKKLRKHVDTLIKISNNKLMEELPRDVKIKDAFLKADETLHQGVKGISELITKRGYINLDFADIESVMKDAGAAILGIGVGKGEHRAREAAKKAMESKLIEHPVENASSIVFNITAPSNIRMEEVHEAAMIIRQNSSEDADVKFGLIFDDEVPDDEIRVIFIATRFPDEDKILFPEGDIPAIYRYGLEGLL | not soluble
MAAMPKPAAFWNDRFANEEYVYGEAPNRFVASAARTWLPEAGEVLLLGAGEGRNAVHLAREGHTVTAVDYAVEGLRKTERLATEAGVEVEAIQADVREWKPARAWDAVVVTFLHLPADERPGLYRLVQRCLRPGGRLVAEWFRPLEHHHHHH | not soluble
MSLTLDVWQHIRQEAKELAENEPMLASFFHSTILKHQNLGGALSYLLANKLANPIMPAISLREIIEEAYQSNPSIIDCAACDIQAVRHRDPAVELWSTPLLYLKGFHAIQSYRITHYLWNQNRKSLALYLQNQISVAFDVDIHPAAKIGHGIMFDHATGIVVGETSVIENDVSILQGVTLGGTGKESGDRHPKVREGVMIGAGAKILGNIEVGKYAKIGANSVVLNPVPEYATAAGVPARIVSQDKAAKPAFDMNQYFIGIDDGMNLNEGGSHHHHHH | soluble
MELEAGTVVEGRVVRVVSFGAFVELAGGEQGLVHISQIAHEYVTNVRDYLNEGDIVQVLIKGRDAKGRLDLSIKDLTPAPEGGAPPPRPRRLPKQSPEFENKLKSFLRGTGGFGGKGKKGGRKKR | soluble
KDMFNTKSSNGKLRIEDASHNARKLGLAPSSTDEKKIRDLYGDSLTYEQYLEYLTMCVHDRDNMEELIKMFSHFDNNSSGFLTKNQMKNILTTWGDALTEQEANDALNAFSSEDRINYKLFCEDIL | soluble
